What was measured:
[1] = target: T1, D0-deleted KIR2DL5 expressed on 3T3 cells (human, UniProt Q8N109 119-375); test: flow cytometry, transduced 3T3 cells
T1 construct: the signal peptide 1-21 is left out; also called KIR2DL5 dD0; DO-deleted KIR2DL5
Description: (§1) FIG. 8A-8D: Generation and characterization of anti-KIR2DL5-specific mAbs. (A) The specificity of anti-KIR2DL5 mAb clone F8B30. 3T3 cells transduced with indicated KIR family members were stained with 5 μg/mL of F8B30 (open) or mIgG1 (shaded). (B) 3T3 cells transduced with DO-deleted (KIR2DL5 dD0) or D2-deleted KIR2DL5 (KIR2DL5 dD2) were stained with 5 μg/mL of clone F8B30 or commercial clone UP-R1. (C) Anti-KIR2DL5 mAb clone F8B30 recognized different KIR2DL5A and 5B alleles. 3T3 cells transduced with indicated alleles were stained with 5 μg/mL of F8B30 or UP-R1 (open) or mIgG1 (shaded). (D) Anti-KIR2DL5 mAb clone F8B30 recognized different KIR2DL5 DO domain variants. 3T3 cells transduced with indicated DO variants were stained with 0.025 μg/mL of F8B30 or UP-R1 (open) or mIgG1 (shaded). In A-D, data are representative of 2 independent experiments.

[2] = target: T2, Y298F; test: flow cytometry, transduced primary NK cells
T2 construct: also called KIR2DL5 Y298F (ITIM mutant) on transduced primary NK cells
Description: (§2) The KIR2DL5⁻ primary NK cells were transduced with WT KIR2DL5 or the indicated mutants, and then examined for protein expression with F8B30 (open) or mIgG1 (shaded). NC, negative control. Data are representative of 2 independent experiments. (B and C) Transduced primary NK cells were treated with (+) or without (−) pervanadate (VO₄) for 5 minutes. Cell lysates were immunoprecipitated with anti-KIR2DL5 antibodies. Phospho-tyrosine (4G10), SHP-1, SHP-2, and total KIR2DL5 were detected by immunoblots (B). Quantification of p-Tyr, SHP-1, and SHP-2 association with WT or mutant KIR2DL5 in VO₄-treated NK cells (C). WCL, whole-cell lysates. (D) Representative imaging of cell conjugates acquired upon the indicated transduced primary NK and PVR/Raji cell contact followed by staining with anti-KIR2DL5 mAb and DAPI. Scale bars: […]. (E) Lysis of scramble control or PVR^KO A427 (top) and Jurkat (bottom) by WT or mutant KIR2DL5-transduced primary NK cells at the indicated E/T ratios. Data are mean for duplicate measurements and representative of 3 independent experiments with 3 different donors. In A, and B, data are representative of 3 independent experiments. *P<0.05, **P<0.01, ***P<0.001, ****P<0.0001, by 1-way ANOVA (C), or paired Student's t test (D).
(§3) Primary NK cell transduction. KIR2DL5 wild type and variants of ITIM/ITSM expressed on the surface of KIR2DL5⁻ primary NK cells were introduced by lentiviral transduction. Lentivirus was produced in HEK293T cells cotransfected with psPAX, pMD2.G, and a lentiviral backbone pSin vector (a gift from the Alec Zhang laboratory, Department of Physiology, University of Texas Southwestern Medical Center, Dallas, Texas, USA) containing the full-length gene sequence of KIR2DL5A*001 using jetPRIME reagents (Polyplus Transfection). Virus-containing supernatant was harvested 48-72 hours after transfection and filtered through a 0.45 µm filter. Non-tissue-culture-treated plates were coated with retronectin, and virus supernatant was then incubated on the surface of plates at 2,000 g for 120 minutes at 37° C. […]

[3] = target: T3, Y328F; test: flow cytometry, transduced primary NK cells
T3 construct: also called KIR2DL5 Y328F (ITSM mutant) on transduced primary NK cells
Description: as §2, §3

[4] = target: T4, Y298F/Y328F; test: flow cytometry, transduced primary NK cells
T4 construct: also called KIR2DL5 Y298F/Y328F (ITIM and ITSM mutant) on transduced primary NK cells
Description: as §2, §3

[5] = target: T5, KIR2DL5A*005 allele expressed on 3T3 cells (human); test: flow cytometry, transduced 3T3 cells, mAb 5 µg/mL
T5 construct: also called 2D5A*005
Description: as §1

T2 sequence (receptor chain, as listed by the source Y298F Y298F limits assumed): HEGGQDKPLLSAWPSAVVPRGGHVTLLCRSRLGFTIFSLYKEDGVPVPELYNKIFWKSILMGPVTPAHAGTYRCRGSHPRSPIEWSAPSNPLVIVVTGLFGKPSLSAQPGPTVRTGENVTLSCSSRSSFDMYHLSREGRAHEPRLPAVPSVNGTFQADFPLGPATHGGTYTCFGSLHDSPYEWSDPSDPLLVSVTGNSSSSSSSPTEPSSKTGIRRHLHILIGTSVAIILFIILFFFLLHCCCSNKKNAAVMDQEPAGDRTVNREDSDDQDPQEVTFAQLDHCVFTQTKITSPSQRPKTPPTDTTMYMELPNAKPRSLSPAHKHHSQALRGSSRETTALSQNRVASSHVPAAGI
T5 sequence (chain, as listed by the source): as the sequence (receptor chain, as listed by the source Y298F Y298F limits assumed) above, with N152D, G174S, F277Y counted along it
T4 sequence (receptor chain, as listed by the source Y298F Y328F Y298F Y328F limits assumed): as the sequence (receptor chain, as listed by the source Y298F Y298F limits assumed) above, with Y307F counted along it
T3 sequence (receptor chain, as listed by the source Y328F Y328F limits assumed): as the sequence (receptor chain, as listed by the source Y298F Y298F limits assumed) above, with F277Y, Y307F counted along it
T1 sequence (Q8N109 119-375, stated change not applied): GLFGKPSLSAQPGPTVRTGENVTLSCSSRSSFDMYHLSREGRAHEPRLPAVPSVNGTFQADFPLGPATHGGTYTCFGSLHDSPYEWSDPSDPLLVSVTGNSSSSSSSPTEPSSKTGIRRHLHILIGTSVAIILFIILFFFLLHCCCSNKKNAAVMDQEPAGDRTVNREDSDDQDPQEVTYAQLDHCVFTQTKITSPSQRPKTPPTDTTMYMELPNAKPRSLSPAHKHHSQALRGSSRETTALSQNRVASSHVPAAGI

B1: anti-KIR2DL5 mAb clone F8B30 (antibody, V domains shown)
VH: QIQLVQSGPELKKPGETVKISCKASGYTFTDYSMHWVKQAPGKGLKWMGWINTETGGPTYADDFKGRFAFSLETSATTAYLQINNLKNEDTATYFCSRDVDLYFDYWGQGTTLTVS
VL: DIQMTQSPASLSASVGETVTITCRTSENIYSYLAWYQQKQGKSPQLLVYNAKTLVEGVPSRFSGSGSGTQFSVKINSLQPEDFGNYYCQHHYGIPFTFGGGTKLEIK
notes: also called F8B30 (IgG1, κ)
binding result [1]: no binding (tested: 5 µg/mL) | binding result [2]: binds | binding result [3]: binds | binding result [4]: binds | binding result [5]: binds
